From patent publication US20260258121A1, “USES OF POMC-SPECIFIC ANTIBODY AND MARCHF6” (KOREA UNIVERSITY RESEARCH AND BUSINESS FOUNDATION, priority 2023, published 2026)

T1: POMC (Homo sapiens, UniProt P01189)
T1 construct: expressed in transfected cells; host or cells: HEK293T
T1 sequence (P01189 1-267): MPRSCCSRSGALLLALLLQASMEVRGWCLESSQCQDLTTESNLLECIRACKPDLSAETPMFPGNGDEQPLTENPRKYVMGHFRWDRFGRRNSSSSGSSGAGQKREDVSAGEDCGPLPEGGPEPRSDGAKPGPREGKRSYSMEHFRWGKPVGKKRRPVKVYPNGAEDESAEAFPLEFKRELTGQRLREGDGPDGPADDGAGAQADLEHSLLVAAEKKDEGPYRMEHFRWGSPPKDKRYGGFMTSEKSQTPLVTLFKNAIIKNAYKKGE

T2: GST-POMC fragments (Homo sapiens, UniProt P01189)
T2 construct: purified GST, GST-POMC^1-76, GST-POMC^27-76, or GST-POMC^1-26 was incubated with 50 μl of glutathione Sepharose beads; made in house; Marchf63f came from an extract of transfected HEK293T cells
T2 sequence (P01189 1-76): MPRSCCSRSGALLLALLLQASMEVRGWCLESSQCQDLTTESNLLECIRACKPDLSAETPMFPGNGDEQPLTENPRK

T3: GST-POMC fragments (Homo sapiens, UniProt P01189)
T3 construct: purified GST, GST-POMC^1-76, GST-POMC^27-76, or GST-POMC^1-26 was incubated with 50 μl of glutathione Sepharose beads; made in house; Marchf63f came from an extract of transfected HEK293T cells
T3 sequence (P01189 27-76): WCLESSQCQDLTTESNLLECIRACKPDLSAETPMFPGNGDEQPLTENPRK

T4: GST-POMC fragments (Homo sapiens, UniProt P01189)
T4 construct: purified GST, GST-POMC^1-76, GST-POMC^27-76, or GST-POMC^1-26 was incubated with 50 μl of glutathione Sepharose beads; made in house; Marchf63f came from an extract of transfected HEK293T cells
T4 sequence (P01189 1-26): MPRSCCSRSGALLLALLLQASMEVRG


Columns and labels:
[1] = tested on: POMCha-overexpressing Marchf6-KO N43/5 cells; assay: Cell viability (CellTiter-Glo) of POMCha-overexpressing Marchf6-KO N43/5 cells; type: cell-based, mouse
Protocol: To understand the functional or mechanistic association between Marchf6-mediated POMC degradation and ferroptosis, lipid ROS levels were compared in N43/5 cells overexpressing POMCha using a lipid peroxidation sensor C11-BODIPY^581/591. Specifically, WT or Marchf6-KO N43/5 cells were transfected with pCH4129 (POMCha) for 48 hours, and the medium was replaced with a culture medium containing 2 μM C11-BODIPY^581/591 (Thermo Fisher Scientific, D3861). The cells were incubated at 37° C. for 30 minutes, and the fluorescent probe-treated cells were trypsinized, transferred to a 15 ml Falcon tube, washed three times with 1 ml of ice-cold PBS, and then transferred to an ice-cold round-bottom polystyrene tube (Corning, 352235). The amount of intracellular lipid ROS in […] was measured using CytoFLEX LX (Beckman Coulter) using fluorescein isothiocyanate (FITC) and analyzed using FlowJo v10.8.1 (BD Bioscience). In addition, cell viability was analyzed using a CellTiter-Glo luminescent 3D cell viability assay kit (Promega, G9241) and a multimode plate reader (TECAN, Spark 10 M). At this time, when the inhibition of cell death was evaluated, WT or Marchf6-KO N43/5 cells expressing pCH60 (empty vector) or pCH4129 (POMCha) (final concentration of […] each) were treated with 5 μM Fer-1, 20 μM Z-VAD-FMK or 40 μM Nec-1, and incubated for 24 hours, and cell viability was analyzed. In addition, the intracellular NADP(H) level was measured using a NADP/NADPH-Glo assay kit (Promega, G9081) and a multimode plate reader (TECAN, Spark 10 M). Further, LDH activity was measured using the Cytotoxicity Detection Kit Plus (LDH) (Sigma, 4744926001).
Through Examples, since Marchf6 mediated the degradation of POMC, it was expected that loss of Marchf6 would make POMC neurons hypersensitive to POMC-induced ferroptosis. Therefore, pCH60 (empty vector), pCH879 (Marchf63f), pCH880 (Marchf6flag^C9A), or pCH4170 (Marchf6flag^P460A) was transfected into WT or Marchf6-KO N43/5 cells, and the degree of ferroptosis induction in POMC neurons was analyzed as in Example 6-1.

4-hydroxynonenal (4HNE) = assay: Immunoblotting of 4-HNE in POMCha-overexpressing N43/5 cells; type: cell-based, mouse; conditions: Fer-1 5 μM, 24 h
POMC = target: T1, POMC; assay: Chemical crosslinking-based reciprocal co-immunoprecipitation assay in HEK293T cells; type: binding; conditions: DSP crosslinking
Protocol: For the chemical crosslinking-based reciprocal co-immunoprecipitation assay, HEK293T cells were incubated at […] in a 10-cm dish plate and co-transfected with […] of pCH60 (empty vector) or pCH4129 (exogenous C-terminally hemagglutinin (ha)-tagged POMC: POMCha) and pCH879 (wild-type C-terminal triple flag-tagged Marchf6: Marchf63f) or pCH4170 (Marchf6^P460A) and incubated for 48 hours. The cells were washed with PBS, treated with 1 mM DSP [dithiobis(succinimidyl propionate)] (Thermo Fisher, 22585), and then the crosslinked cells were lysed and immunoprecipitated. The beads were washed three times with an IP-wash buffer (20 mM Tris-HCl, 137 mM NaCl, 0.1% NP-40, 2 mM EDTA, 10% glycerol) and bound proteins were eluted with a 2× SDS sample buffer. For immunoprecipitation with FLAG-agarose (Sigma-Aldrich, A2220), a 3× FLAG peptide (Protein Ark, GEN-3XFLAG-5) was used. Thereafter, the eluate was denatured and heated at 37° C. for 20 minutes, and SDS-PAGE and immunoblotting were performed using the corresponding antibody.

GST-POMC fragments [2] = target: T2, GST-POMC fragments; assay: GST pull-down assay; type: binding; conditions: extract of HEK293T cells expressing Marchf63f
Protocol: (§1) To clarify a POMC domain binding to the C4 domain of Marchf6, a Y2H assay was performed using a set of POMC fragments in which the C4 of Marchf6 and the C-terminus (Ct-) of POMC were cleaved. To this end, pCH4540 (C4), pCH4132 (POMC), or cleaved forms thereof pCH4235 (POMC^1-76), pCH4236 (POMC^1-87), pCH4237 (POMC^1-102), pCH4238 (POMC^1-137), and pCH4239 (POMC^1-176) were co-transformed into CHY726 and spotted on a SC(-Leu/-Trp) or SC(-Leu/-Trp/-His) plate and analyzed as in Example above. In addition, for interaction analysis between full-length Marchf6 and POMC, a split-Ub assay was performed by transforming S. cerevisiae CHY712 with pCH836 (Marchf6) or pCH4311 (Marchf6^P460A) as bait and pCH4203 (POMC^1-267), pCH4204 (POMC^77-267), or pCH4313 (POMC^1-76) as prey. In addition, for glutathione-S-transferase (GST) pull-down assay, […] of purified GST, GST-POMC^1-76, GST-POMC^27-76, or GST-POMC^1-26 was incubated with 50 μl of glutathione Sepharose beads (Cytiva, 17-0756-05) at 4° C. for 2 hours.
(§2) HEK293T cells transfected with pCH879 (Marchf63f) were lysed with a lysis buffer (50 mM Tris-HCl, 150 mM NaCl, 1 mM EDTA, 1% NP-40, pH 7.6) containing 1× protease inhibitor cocktail to obtain an extract, and the extract and the beads were further incubated at 4° C. for 2 hours, and then washed three times with 0.5 ml of GST-wash buffer (20 mM Tris-HCl, 137 mM NaCl, 2 mM EDTA, 0.5% NP-40, 10% glycerol, pH 7.6). Proteins binding to the beads were eluted with a 2× SDS-sample buffer, heated at 37° C. for 20 minutes, subjected to SDS-PAGE, Coomassie blue staining, and immunoblotting using anti-flag antibody.

GST-POMC fragments [3] = target: T3, GST-POMC fragments; assay: GST pull-down assay; type: binding; conditions: extract of HEK293T cells expressing Marchf63f; remark: listed apart in the source
Protocol: as §1, §2

GST-POMC fragments [4] = target: T4, GST-POMC fragments; assay: GST pull-down assay; type: binding; conditions: extract of HEK293T cells expressing Marchf63f; remark: listed apart in the source
Protocol: as §1, §2

[5] = tested on: Gpx4, CHOP, Nox2, and Nox4; assay: Immunoblotting of Gpx4, CHOP, Nox2 and Nox4 in POMCha-overexpressing Marchf6-KO N43/5 cells; type: cell-based, mouse

| Molecule | decreased viability of POMCha-overexpressing Marchf6-KO N43/5 cells, effect of treatment ([1]; 5 μM Fer-1, 24 hours) | level of 4-hydroxynonenal (4HNE) increased by overexpression of POMCha, effect of treatment (4-hydroxynonenal (4HNE)) | reduced viability of POMCha-overexpressing Marchf6-deficient N43/5 cells, effect of ectopic expression ([1]; ectopic expression by transfection) | binding of full-length POMC (co-immunoprecipitation) (POMC) | binding to GST-POMC^1-76 (GST-POMC fragments [2]) | binding to GST-POMC^27-76 (GST-POMC fragments [3]) | binding to GST-POMC^1-26 (GST-POMC fragments [4]) | expression levels of Gpx4, CHOP, Nox2, and Nox4 proteins, effect of expression of construct [5] |
| --- | --- | --- | --- | --- | --- | --- | --- | --- |
| CCOC(=O)c1ccc(NC2CCCCC2)c(N)c1 [Fer-1, ferrostatin-1, reference compound] | restored | restored |  |  |  |  |  |  |
| Marchf63f: wild-type C-terminal triple flag-tagged Marchf6 (membrane associated ring-CH-type finger 6), expressed from pCH879 (protein, UniProt Q6ZQ89 1-909, looked up, C-terminal triple FLAG tag, wild-type C-terminal triple flag-tagged Marchf6 (membrane associated ring-CH-type finger 6), expressed from pCH879) E3 ubiquitin-protein ligase …: MDTAEEDICRVCRSEGTPEKPLYHPCVCTGSIKFIHQECLVQWLKHSRKEYCELCKHRFAFTPIYSPDMPSRLPIQDIFAGLVTSIGTAIRYWFHYTLVAFAWLGVVPLTACRIYKCLFTGSVSSLLTLPLDMLSTENLLADCLQGCFVVTCTLCAFISLVWLREQIVHGGAPIWLEHAAPPFNAAGHHQNEAPVGGNGAENPAADQPANPAGENAVLGENPDAQDGQAEEEEEDNEEEDDAGVEDAADANNGAQDDMNWNALEWDRAAEELTWERMLGLDGSLVFLEHVFWVVSLNTLFILVFAFCPYHIGHFSLVGLGFEEHVQASHFEGLITTIVGYILLAITLIICHALATLVKFHRSRRLLGVCYIVVKVSLLVVVEIGVFPLICGWWLDICSLEMFDATLKDRELSFQSAPGTTMFLHWLVGMVYVFYFASFILLLREVLRPGVLWFLRNLNDPDFNPVQEMIHLPIYRHLRRFILSVIVFGSIVLLMLWLPIRIIKSLLPNFLPYNVMLYSDAPVSELSLELLLLQVVLPALLEQGHTRQWLKGLVRAWTVTAGYLLDLHSYLLGDQEENENSANQQVNNNQPARNNNAVPAGEGLHAAHQAILQQGGPVGFQPYRRPLNFPLRIFLLIVFMCITLLIASLICLTLPVFAGRWLMSFWTGTAKIHELYTAACGLYVCWLTIRAVTVLVAWMPQGRRVIFQKVKEWSLMIMKTLIVAVLLAGVVPLLLGLLFELVIVAPLRVPLDQTPLFYPWQDWALGVLHAKIIAAITLMGPQWWLKTVIEQVYANGIRNIDLHYIIRKLAAPVISVLLLSLCVPYVIASGAVPLLGVTAEMQNLVHRRIYPFLLMVVVLMGILSFQVRQFKRLYEHIKNDKYLVGQRLVNYERKSGKQGPSTPPPVSSQE |  |  | restored | specifically bound | directly bound | very weakly bound | hardly bound | restored |
